The values that follow come from publication PMC8282340.

Assay [1] deals with fluorescent NOXA peptide (human). The experiment in a line: FP. As to conditions: natural protein.
In assay [2] the target is fluorescent BID peptide (human). The experiment in a line: FP. To be noted: natural protein.
The target of assay [3] is NOXA peptide fused to the C-terminal half of T7 RNAP. The experiment in a line: luciferase assay. As to conditions: parent: est. 1.0; read off a plot.

human MCL-1 fused to the N-terminal half of T7 RNAP, sequence (Q07820 whole entry, the tested form may be a part): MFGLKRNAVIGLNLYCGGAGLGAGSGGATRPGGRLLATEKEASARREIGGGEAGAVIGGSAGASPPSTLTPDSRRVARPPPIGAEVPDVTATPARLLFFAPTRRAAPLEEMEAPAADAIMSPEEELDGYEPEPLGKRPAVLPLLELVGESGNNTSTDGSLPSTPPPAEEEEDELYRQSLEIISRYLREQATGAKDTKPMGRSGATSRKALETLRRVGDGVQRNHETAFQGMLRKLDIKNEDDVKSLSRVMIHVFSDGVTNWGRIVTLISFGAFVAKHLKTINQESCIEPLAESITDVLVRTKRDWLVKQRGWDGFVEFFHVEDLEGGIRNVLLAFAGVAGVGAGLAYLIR
fluorescent BID peptide (human), sequence (P55957 79-99): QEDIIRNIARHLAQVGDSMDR
fluorescent NOXA peptide (human), sequence (Q13794 19-43): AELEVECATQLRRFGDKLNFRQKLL

In the case of “human MCL-1 fused to the N-terminal half of T7 RNAP”, the Kd (as a rule, the constant that tells how readily two partners part at equilibrium) in assay [1] is 9.79 nM; in assay [2] it was 14.7 nM.

With “human MCL-1 fused to the N-terminal half of T7 RNAP a167T; g202S”, the ratio to parent in assay [3] stood at 1.1.

Take “human MCL-1 fused to the N-terminal half of T7 RNAP g202N; d263A”: in assay [3], the ratio to parent is 0.84.

As to “human MCL-1 fused to the N-terminal half of T7 RNAP n200S; f258V”, the ratio to parent in assay [3] came out at 3.8.

In the case of “human MCL-1 fused to the N-terminal half of T7 RNAP v189G”, in assay [3], the ratio to parent was determined as 3.8.
